In patent US20260098059A1 (ENDOMET BIOSCIENCES, published 2026):
Values joined by “and” are separate entries in the source; they are usually repeats but may differ in a detail not shown here. Equal values may be shown once. Bridges are numbered along the chain shown (N, C = ends). [ ]: non-standard residue; d: D form. αMeF = C[C@](N)(Cc1ccccc1)C(=O)O; Ppa = not defined here

T1: β-catenin (UniProt P35222 134-665, limits assumed, biotinylated in the SPR and plate assays)
T1 sequence (looked up): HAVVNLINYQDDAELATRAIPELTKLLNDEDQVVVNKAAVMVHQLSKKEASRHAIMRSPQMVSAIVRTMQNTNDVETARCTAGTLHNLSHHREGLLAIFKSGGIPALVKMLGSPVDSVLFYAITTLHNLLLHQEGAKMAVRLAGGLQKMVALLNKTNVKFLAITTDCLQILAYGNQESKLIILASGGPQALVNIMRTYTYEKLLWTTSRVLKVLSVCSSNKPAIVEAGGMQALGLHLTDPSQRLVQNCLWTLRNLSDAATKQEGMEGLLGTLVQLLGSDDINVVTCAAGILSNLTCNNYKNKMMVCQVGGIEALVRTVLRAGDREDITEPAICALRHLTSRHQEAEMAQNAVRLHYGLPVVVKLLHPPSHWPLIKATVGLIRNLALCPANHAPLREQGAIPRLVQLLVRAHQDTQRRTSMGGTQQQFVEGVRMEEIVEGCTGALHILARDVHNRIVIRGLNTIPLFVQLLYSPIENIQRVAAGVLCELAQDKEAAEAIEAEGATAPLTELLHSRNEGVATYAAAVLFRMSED

B1: SEQ ID NO: 224 (peptide)
peptide: Ppa-MWILISFWG-OH
modifications: reading uncertain; also: printed as Ppa-MWILISFWG-COOH
notes: also called Hit 2
B2: SEQ ID NO: 225 (peptide)
peptide: MWILISFWG
HELM: PEPTIDE1{[CC(C)(C)C(=O)[*:2]].M.W.I.L.I.S.F.W.G}$$$$V2.0
SMILES: CC[C@H](C)[C@H](NC(=O)[C@H](CC(C)C)NC(=O)[C@@H](NC(=O)[C@H](Cc1c[nH]c2ccccc12)NC(=O)[C@H](CCSC)NC(=O)C(C)(C)C)[C@@H](C)CC)C(=O)N[C@@H](CO)C(=O)N[C@@H](Cc1ccccc1)C(=O)N[C@@H](Cc1c[nH]c2ccccc12)C(=O)NCC(=O)O
B3: SEQ ID NO: 189 (peptide)
peptide: XMWFLICFWD
HELM: PEPTIDE1{[O=C(CCCCCN[*:1])[*:2]].M.W.F.L.I.C.F.W.D}$PEPTIDE1,PEPTIDE1,1:R1-10:R3$$$V2.0
SMILES: CC[C@H](C)[C@@H]1NC(=O)[C@H](CC(C)C)NC(=O)[C@H](Cc2ccccc2)NC(=O)[C@H](Cc2c[nH]c3ccccc23)NC(=O)[C@H](CCSC)NC(=O)CCCCCNC(=O)C[C@@H](C(=O)O)NC(=O)[C@H](Cc2c[nH]c3ccccc23)NC(=O)[C@H](Cc2ccccc2)NC(=O)[C@H](CS)NC1=O
B4: SEQ ID NO: 192 (peptide)
peptide: XMWFLICAWD
HELM: PEPTIDE1{[O=C(CCCCCN[*:1])[*:2]].M.W.F.L.I.C.A.W.D}$PEPTIDE1,PEPTIDE1,1:R1-10:R3$$$V2.0
SMILES: CC[C@H](C)[C@@H]1NC(=O)[C@H](CC(C)C)NC(=O)[C@H](Cc2ccccc2)NC(=O)[C@H](Cc2c[nH]c3ccccc23)NC(=O)[C@H](CCSC)NC(=O)CCCCCNC(=O)C[C@@H](C(=O)O)NC(=O)[C@H](Cc2c[nH]c3ccccc23)NC(=O)[C@H](C)NC(=O)[C@H](CS)NC1=O
B5: SEQ ID NO: 193 (peptide)
peptide: [Ado]MWFLICAWD-OH
modifications: lactam N-10
B6: SEQ ID NO: 261 (peptide)
peptide: KWALIXAWD
HELM: PEPTIDE1{[ac].K.W.[Cha].L.I.[Abu].A.W.D}$PEPTIDE1,PEPTIDE1,2:R3-10:R3$$$V2.0
SMILES: CC[C@@H]1NC(=O)[C@H]([C@@H](C)CC)NC(=O)[C@H](CC(C)C)NC(=O)[C@H](CC2CCCCC2)NC(=O)[C@H](Cc2c[nH]c3ccccc23)NC(=O)[C@@H](NC(C)=O)CCCCNC(=O)C[C@@H](C(=O)O)NC(=O)[C@H](Cc2c[nH]c3ccccc23)NC(=O)[C@H](C)NC1=O
B7: SEQ ID NO: 262 (peptide)
peptide: KWGLIXAWD
HELM: PEPTIDE1{[ac].K.W.[O=C([C@@H](N[*:1])C1CCCCC1)[*:2]].L.I.[Abu].A.W.D}$PEPTIDE1,PEPTIDE1,2:R3-10:R3$$$V2.0
SMILES: CC[C@@H]1NC(=O)[C@H]([C@@H](C)CC)NC(=O)[C@H](CC(C)C)NC(=O)[C@H](C2CCCCC2)NC(=O)[C@H](Cc2c[nH]c3ccccc23)NC(=O)[C@@H](NC(C)=O)CCCCNC(=O)C[C@@H](C(=O)O)NC(=O)[C@H](Cc2c[nH]c3ccccc23)NC(=O)[C@H](C)NC1=O
B8: Peptide 2 (SEQ ID NO: 215) (peptide)
peptide: KLWALIXAWD
HELM: PEPTIDE1{[ac].K.[Nle].W.[Cha].L.I.[Abu].A.W.D}$PEPTIDE1,PEPTIDE1,2:R3-11:R3$$$V2.0
SMILES: CCCC[C@@H]1NC(=O)[C@@H](NC(C)=O)CCCCNC(=O)C[C@@H](C(=O)O)NC(=O)[C@H](Cc2c[nH]c3ccccc23)NC(=O)[C@H](C)NC(=O)[C@H](CC)NC(=O)[C@H]([C@@H](C)CC)NC(=O)[C@H](CC(C)C)NC(=O)[C@H](CC2CCCCC2)NC(=O)[C@H](Cc2c[nH]c3ccccc23)NC1=O
notes: also called Cyclo-acetyl-K*Nle-W-3-cyclohexyl-L-alanine-LI-(amino butyric acid-AWD*-COOH)
B9: SEQ ID NO: 404 (peptide)
peptide: WAQKILDEHGQRVWG
HELM: PEPTIDE1{[ac].W.[meA].Q.K.I.L.D.E.H.[O=C([C@@H](N[*:1])C1CCCCC1)[*:2]].Q.R.V.W.G.[am]}$PEPTIDE1,PEPTIDE1,5:R3-9:R3$$$V2.0
SMILES: CC[C@H](C)[C@@H]1NC(=O)[C@@H](NC(=O)[C@H](CCC(N)=O)NC(=O)[C@H](C)N(C)C(=O)[C@H](Cc2c[nH]c3ccccc23)NC(C)=O)CCCCNC(=O)CC[C@@H](C(=O)N[C@@H](Cc2c[nH]cn2)C(=O)N[C@H](C(=O)N[C@@H](CCC(N)=O)C(=O)N[C@@H](CCCNC(=N)N)C(=O)N[C@H](C(=O)N[C@@H](Cc2c[nH]c3ccccc23)C(=O)NCC(N)=O)C(C)C)C2CCCCC2)NC(=O)[C@H](CC(=O)O)NC(=O)[C@H](CC(C)C)NC1=O
B10: SEQ ID NO: 401 (peptide)
peptide: WAQKILDEHVQRVWG
HELM: PEPTIDE1{W.[meA].Q.K.I.L.D.E.H.V.Q.R.V.W.G.[am]}$PEPTIDE1,PEPTIDE1,4:R3-8:R3$$$V2.0
SMILES: CC[C@H](C)[C@@H]1NC(=O)[C@@H](NC(=O)[C@H](CCC(N)=O)NC(=O)[C@H](C)N(C)C(=O)[C@@H](N)Cc2c[nH]c3ccccc23)CCCCNC(=O)CC[C@@H](C(=O)N[C@@H](Cc2c[nH]cn2)C(=O)N[C@H](C(=O)N[C@@H](CCC(N)=O)C(=O)N[C@@H](CCCNC(=N)N)C(=O)N[C@H](C(=O)N[C@@H](Cc2c[nH]c3ccccc23)C(=O)NCC(N)=O)C(C)C)C(C)C)NC(=O)[C@H](CC(=O)O)NC(=O)[C@H](CC(C)C)NC1=O
B11: SEQ ID NO: 219 (peptide)
peptide: Ac-MWFLISFWG-OH
B12: SEQ ID NO: 133 (peptide)
peptide: H-MW[αMeF]LISFWG-OH
B13: SEQ ID NO: 176 (peptide)
peptide: DWFLICFWKG
HELM: PEPTIDE1{D.W.F.L.I.C.F.W.K.G}$PEPTIDE1,PEPTIDE1,1:R3-9:R3$$$V2.0
SMILES: CC[C@H](C)[C@@H]1NC(=O)[C@H](CC(C)C)NC(=O)[C@H](Cc2ccccc2)NC(=O)[C@H](Cc2c[nH]c3ccccc23)NC(=O)[C@@H](N)CC(=O)NCCCC[C@@H](C(=O)NCC(=O)O)NC(=O)[C@H](Cc2c[nH]c3ccccc23)NC(=O)[C@H](Cc2ccccc2)NC(=O)[C@H](CS)NC1=O
B14: SEQ ID NO: 37 (peptide)
peptide: WWESILDEHVQRVWG
HELM: PEPTIDE1{[meW].[meW].E.S.I.L.D.E.H.V.Q.R.V.W.G.[am]}$$$$V2.0
SMILES: CC[C@H](C)[C@H](NC(=O)[C@H](CO)NC(=O)[C@H](CCC(=O)O)NC(=O)[C@H](Cc1c[nH]c2ccccc12)N(C)C(=O)[C@H](Cc1c[nH]c2ccccc12)NC)C(=O)N[C@@H](CC(C)C)C(=O)N[C@@H](CC(=O)O)C(=O)N[C@@H](CCC(=O)O)C(=O)N[C@@H](Cc1c[nH]cn1)C(=O)N[C@H](C(=O)N[C@@H](CCC(N)=O)C(=O)N[C@@H](CCCNC(=N)N)C(=O)N[C@H](C(=O)N[C@@H](Cc1c[nH]c2ccccc12)C(=O)NCC(N)=O)C(C)C)C(C)C
B15: SEQ ID NO: 190 (peptide)
peptide: [Ado]MWFLICFWD-OH
modifications: lactam N-10
B16: SEQ ID NO: 196 (peptide)
peptide: Ac-WFLIAFWG-OH
B17: SEQ ID NO: 194 (peptide)
peptide: Ac-WFLICFWG-OH
B18: SEQ ID NO: 220 (peptide)
peptide: Ac-WFLISFWG-OH
notes: also called Hit 5
B19: SEQ ID NO: 195 (peptide)
peptide: Ac-WILISFWG-OH
B20: SEQ ID NO: 175 (peptide)
peptide: DWFLICFWKG
HELM: PEPTIDE1{[ac].D.W.F.L.I.C.F.W.K.G}$PEPTIDE1,PEPTIDE1,2:R3-10:R3$$$V2.0
SMILES: CC[C@H](C)[C@@H]1NC(=O)[C@H](CC(C)C)NC(=O)[C@H](Cc2ccccc2)NC(=O)[C@H](Cc2c[nH]c3ccccc23)NC(=O)[C@@H](NC(C)=O)CC(=O)NCCCC[C@@H](C(=O)NCC(=O)O)NC(=O)[C@H](Cc2c[nH]c3ccccc23)NC(=O)[C@H](Cc2ccccc2)NC(=O)[C@H](CS)NC1=O

The binders below were run against T1, β-catenin (assay: cell-based or functional assay).
In the case of B1, the “Wnt Reporter EC50” value is reported as at most 7.5 µM.
For B2, the “Wnt Reporter EC50” value was at most 7.5 µM.
B3 was tested, and the “Wnt Reporter EC50” value was at most 7.5 µM.
For B4, the “Wnt Reporter EC50” value was at most 7.5 µM.
In the case of B5, the “Wnt Reporter EC50” value is reported as at most 7.5 µM.
For B6, the “Proliferation IC50, Endo cells” value was 7.7 µM, the “Proliferation IC50, Wnt dependent cells” value was 4 µM and the “Wnt Reporter EC50” value was > 7.5 µM and ≤ 15 µM.
For B7, the “Proliferation IC50, Endo cells” value was 26.3 µM and the “Proliferation IC50, Wnt dependent cells” value was 5 µM.
For B8, the “Proliferation IC50, Endo cells” value was over 30 µM and the “Wnt Reporter EC50” value was over 30 µM.
In the case of B9, the “Wnt Reporter EC50” value is reported as over 30 µM.
With B10 the “Wnt Reporter EC50” value was over 30 µM.
In the case of B11, the “Wnt Reporter EC50” value is reported as at most 7.5 µM.
In the case of B12, the “Wnt Reporter EC50” value is reported as over 30 µM.
With B13 the “Wnt Reporter EC50” value was > 7.5 µM and ≤ 15 µM.
With B14 the “Wnt Reporter EC50” value was over 30 µM.
For B15, the “Wnt Reporter EC50” value was at most 7.5 µM.
With B16 the “Wnt Reporter EC50” value was at most 7.5 µM.
In the case of B17, the “Wnt Reporter EC50” value is reported as at most 7.5 µM.
With B18 the “Wnt Reporter EC50” value was at most 7.5 µM.
In the case of B19, the “Wnt Reporter EC50” value is reported as at most 7.5 µM.
B20 was tested, and the “Wnt Reporter EC50” value was > 7.5 µM and ≤ 15 µM.

What follows are binders tested against T1, β-catenin (assay: competitive FP).
Method in brief: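 Competitive fluorescence polarization with inhibitor peptide serially diluted from 10 nM to 30 uM; polarization read at 470 nm excitation, 520 nm emission. Experiments performed three times.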
For B1, the Kd was at most 0.4 µM.
For B2, the Kd was > 0.4 µM and ≤ 1 µM.
B3 was tested, and the Kd was > 0.4 µM and ≤ 1 µM.
B4 showed a Kd of at most 0.4 µM.
In the case of B5, the Kd is reported as > 0.4 µM and ≤ 1 µM.
B6 was tested, and the Kd was > 0.4 µM and ≤ 1 µM.
In the case of B7, the Kd is reported as > 0.4 µM and ≤ 1 µM.
With B8 the Kd was at most 0.4 µM.
B9 showed a Kd of at most 0.4 µM.
In the case of B10, the Kd is reported as > 0.4 µM and ≤ 1 µM.
With B11 the Kd was > 0.4 µM and ≤ 1 µM.
B12 was tested, and the Kd was at most 0.4 µM.
With B13 the Kd was > 10 µM and ≤ 30 µM.
B14 was tested, and the Kd was at most 0.4 µM.
In the case of B15, the Kd is reported as > 0.4 µM and ≤ 1 µM.
In the case of B16, the Kd is reported as > 0.4 µM and ≤ 1 µM.
For B17, the Kd was > 0.4 µM and ≤ 1 µM.
In the case of B18, the Kd is reported as > 0.4 µM and ≤ 1 µM.
B19 was tested, and the Kd was at most 0.4 µM.
In the case of B20, the Kd is reported as > 10 µM and ≤ 30 µM.
